The text below walks through data of patent publication US20050084449A1 (CELLDEX THERAPEUTICS, published 2005).

Assay [1] deals with T1, TIM-1 antigen, cell membrane-bound (on ACHN, CAKI-2, CAKI-1 renal cancer cells and polarized/activated human … (human, UniProt Q96D42 21-364)).
T1 construct: whole, on cells; Endogenous protein on cells; also called HAVcr-1; KIM-1
T1 sequence (looked up): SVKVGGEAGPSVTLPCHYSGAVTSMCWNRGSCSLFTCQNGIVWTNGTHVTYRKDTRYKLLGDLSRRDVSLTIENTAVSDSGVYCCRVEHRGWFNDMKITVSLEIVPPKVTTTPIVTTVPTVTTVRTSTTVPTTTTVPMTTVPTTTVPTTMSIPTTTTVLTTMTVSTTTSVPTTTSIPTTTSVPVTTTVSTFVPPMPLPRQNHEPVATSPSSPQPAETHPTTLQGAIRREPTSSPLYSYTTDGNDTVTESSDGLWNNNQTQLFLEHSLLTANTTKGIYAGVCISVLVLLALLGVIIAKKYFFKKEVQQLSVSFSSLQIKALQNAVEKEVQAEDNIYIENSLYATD
The assay is described as follows: FACS on ACHN cells, normalized to isotype control pK16.

For assay [2], the target named is T1, TIM-1 antigen, cell membrane-bound (on …). The assay is described as follows: FACS on polarized human CD4+ Th2 cells, 10 ug/mL mAb.
Assay [3] shares this target. The assay is described as follows: FACS on CAKI-2 cells, normalized to isotype control pK16.
In assay [4] the target is T2, synthetic peptide PMPLPRQAHE (SEQ ID NO:102).
T2 peptide: PMPLPRQAHE
The assay is described as follows: peptide ELISA, alanine scan. On the technique in general: An ELISA detects its analyte on a solid surface through an enzyme-linked reagent.

Assay [5] deals with T3, synthetic peptide PMPLARQNHE (SEQ ID NO:99).
T3 peptide: PMPLARQNHE
The assay is described as follows: peptide ELISA, alanine scan.

For assay [6], the target named is T4, TIM-1 peptide G) PRQNHEPVAT (human).
T4 peptide: PRQNHEPVAT
The assay is described as follows: peptide ELISA.

Assay [7] addresses T5, TIM-1 peptide D) PMPLPRQN (human).
T5 peptide: PMPLPRQN
The assay is described as follows: peptide ELISA.

The target of another assay is T6, TIM-1 peptide I) HEPVAT (human).
T6 peptide: HEPVAT
The assay is described as follows: peptide ELISA.

Another assay deals with T7, TIM-1 peptide E) PMPLPR (human).
T7 peptide: PMPLPR
The assay is described as follows: peptide ELISA.

In assay [8] the target is T8, TIM-1 peptide H) QNHEPVAT (human).
T8 peptide: QNHEPVAT
The assay is described as follows: peptide ELISA.

B1: anti-TIM-1 mAb 1.29 (antibody, human IgG2, V domains shown)
VH: QVQLQESGPGLVKPSETLSLTCTVSGGSVSSGGYYWSWIRQPPGKGLEWIGFIYYTGSTNYNPSLKSRVSISVDTSKNQFSLKLSSVTAADAAVYYCARDYDWSFHFDYWGQGTLVTVSS
VL: DIQMTQSPSSLSASIGDRVTITCRASQGIRNDLGWYQQKPGKAPKRLIYAASSLQSGVPSRFSGSGSGTEFTLTISSLQPEDFATYYCLQHNSYPLTFGGGTKVEIKR
With B1, the “Geo Mean Ratio (relative to negative control)” value in assay [1] came out at 17.9 ratio. Moreover, in assay [2], the “Geometric mean of fluorescence intensity” value amounted to 22.3.

B2: anti-TIM-1 mAb 2.59 (antibody, human IgG4, V domains shown)
VH: QSGPRLVKPSQTLSLTCTVSGGSISSDGYYWSWIRQHPGKGLEWIGYIYYSGSTFYNPSLKSRVAISVDTSKNQFSLKLSSVTAADTAVYYCARESPHSSNWYSGFDCWGQGTLVTVSS
VL: TQSPDFQSVTPKEKVTITCRASQSIGSRLHWYQQKPDQSPKLLIKYASQSFSGVPSRFSGSGSGTDFTLTINSLEAEDAATYYCHQSSNLPFTFGPGTKVDIKR
notes: Biotinylated for IHC
As to B2, the figures for the “Geo Mean Ratio (relative to negative control)” value in assay [1] and in assay [3] were 15.2 ratio and 7.7 ratio, respectively. Further, the “Geometric mean of fluorescence intensity” value in assay [2] was 22.

B3: anti-TIM-1 mAb 2.70 (antibody, V domains shown)
VH: QVQLVESGGGVVQPGRSLRLSCAASGFIFSRYGMHWVRQAPGKGLKWVAVIWYDGSNKLYADSVKGRFTISRDNSKNTLYLQMNSLRAEDTAVYYCARDYYDNSRHHWGFDYWGQGTLVTVSS
VL: DIVMTQTPLSLPVTPGEPASISCRSSRSLLDSDDGNTYLDWYLQKPGQSPQLLIYTLSYRASGVPDRFSGSGSGTDFTLKISRVEAEDVGVYYCMQRVEFPITFGQGTRLEIKR
notes: Subclone 2.70.2 is treated as the same antibody because its printed variable regions are identical; also called 2.70.2 (subclone); TIM-1 2.70.2
Regarding B3, the “Geo Mean Ratio (relative to negative control)” value in assay [1] turned out to be 19.4 ratio; in assay [3], 8.8 ratio. Also, the binding result (in assay [4]; in assay [5]; in assay [6]; in [7]; with TIM-1 peptide I) HEPVAT; with TIM-1 peptide E) PMPLPR) was “no binding” in each case. Further, the binding result in assay [8] is given as “no binding”. In addition, the “Geometric mean of fluorescence intensity” value in assay [2] worked out at 27.8.

B4: anti-TIM-1 mAb 2.16 (antibody, V domains shown)
VH: EQSGGGVVKPGGSLRLSCAASGFTFSNAWMTWVRQAPGKGLEWVGRIKRRTDGGTTDYAAPVKGRFTISRDDSKNTLYLQMNNLKNEDTAVYYCTSVDNDVDYWGQGTLVTVSS
VL: not shown
notes: also called 2.16.1 (subclone)
Take B4: the “Geo Mean Ratio (relative to negative control)” value in [1] was 7.9 ratio.
